Laboratory results taken from patent US20230201151A1, “FORMULATIONS AND METHODS FOR TREATING ACUTE RESPIRATORY DISTRESS SYNDROME, ASTHMA, OR ALLERGIC RHINITIS” (UNIVERSITY OF FLORIDA RESEARCH FOUNDATION, INC., priority 2020, published 2023).

Target: T1, ENaC (Homo sapiens, UniProt P37088+P51168+P51170)
T1 construct: primary cultures of human bronchial epithelial cells (HBEC) harvested from normal human lungs; endogenous in cells; host or cells: primary human bronchial epithelial cells (HBEC) from donor lungs, differentiated at an air-liquid interface
T1 sequence (P37088 1-669): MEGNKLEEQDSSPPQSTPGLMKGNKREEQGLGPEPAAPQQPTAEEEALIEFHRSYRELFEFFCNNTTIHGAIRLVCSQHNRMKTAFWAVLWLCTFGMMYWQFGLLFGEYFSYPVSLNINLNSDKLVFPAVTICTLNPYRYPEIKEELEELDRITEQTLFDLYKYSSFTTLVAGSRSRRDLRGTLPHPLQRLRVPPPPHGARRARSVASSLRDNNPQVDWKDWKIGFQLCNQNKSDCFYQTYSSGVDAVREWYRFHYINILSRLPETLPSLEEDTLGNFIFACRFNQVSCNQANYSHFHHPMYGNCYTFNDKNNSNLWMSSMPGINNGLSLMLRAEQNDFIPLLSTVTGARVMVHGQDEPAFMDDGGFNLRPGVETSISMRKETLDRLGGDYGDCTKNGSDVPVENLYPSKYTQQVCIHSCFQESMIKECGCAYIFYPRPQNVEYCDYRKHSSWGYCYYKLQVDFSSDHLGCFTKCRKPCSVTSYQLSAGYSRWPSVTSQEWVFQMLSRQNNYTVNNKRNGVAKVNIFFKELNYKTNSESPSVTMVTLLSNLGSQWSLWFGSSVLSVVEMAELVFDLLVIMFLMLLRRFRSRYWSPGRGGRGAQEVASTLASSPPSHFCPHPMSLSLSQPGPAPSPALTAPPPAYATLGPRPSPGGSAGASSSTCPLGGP
T1 sequence (P51168 1-640): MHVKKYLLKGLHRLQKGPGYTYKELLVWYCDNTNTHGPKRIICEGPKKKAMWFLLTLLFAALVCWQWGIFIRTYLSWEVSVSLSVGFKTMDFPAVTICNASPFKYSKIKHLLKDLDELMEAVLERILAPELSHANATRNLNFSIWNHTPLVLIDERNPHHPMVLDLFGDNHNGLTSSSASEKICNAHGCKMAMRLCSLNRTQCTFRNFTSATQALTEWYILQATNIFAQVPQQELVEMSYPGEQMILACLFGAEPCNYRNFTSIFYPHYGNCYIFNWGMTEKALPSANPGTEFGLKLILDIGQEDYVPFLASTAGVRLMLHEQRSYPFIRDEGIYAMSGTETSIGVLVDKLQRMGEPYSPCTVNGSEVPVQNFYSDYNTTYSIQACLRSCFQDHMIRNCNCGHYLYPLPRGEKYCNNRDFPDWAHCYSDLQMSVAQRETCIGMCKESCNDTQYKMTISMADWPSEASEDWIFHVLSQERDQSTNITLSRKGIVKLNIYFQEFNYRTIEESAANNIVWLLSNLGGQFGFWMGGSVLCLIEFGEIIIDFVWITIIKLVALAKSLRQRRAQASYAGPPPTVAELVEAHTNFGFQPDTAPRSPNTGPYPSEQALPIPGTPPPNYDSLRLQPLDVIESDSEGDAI
T1 sequence (P51170 1-649): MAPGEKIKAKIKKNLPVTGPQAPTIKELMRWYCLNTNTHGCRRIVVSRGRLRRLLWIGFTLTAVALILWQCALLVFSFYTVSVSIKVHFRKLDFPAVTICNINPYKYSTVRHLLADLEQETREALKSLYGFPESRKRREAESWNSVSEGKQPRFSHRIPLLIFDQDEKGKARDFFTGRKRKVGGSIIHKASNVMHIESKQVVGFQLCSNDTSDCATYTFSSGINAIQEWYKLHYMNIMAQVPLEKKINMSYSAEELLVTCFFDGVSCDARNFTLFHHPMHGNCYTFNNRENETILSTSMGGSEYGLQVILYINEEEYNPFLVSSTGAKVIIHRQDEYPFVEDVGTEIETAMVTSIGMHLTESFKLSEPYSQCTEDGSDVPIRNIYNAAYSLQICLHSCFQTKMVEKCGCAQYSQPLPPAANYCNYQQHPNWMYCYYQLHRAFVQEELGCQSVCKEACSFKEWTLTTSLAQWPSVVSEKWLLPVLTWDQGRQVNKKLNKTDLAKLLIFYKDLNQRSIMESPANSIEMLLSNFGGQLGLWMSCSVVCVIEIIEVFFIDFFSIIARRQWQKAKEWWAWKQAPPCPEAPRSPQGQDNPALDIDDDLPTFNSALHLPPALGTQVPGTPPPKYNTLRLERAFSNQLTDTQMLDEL
Experiment: ENaC current (benzamil-sensitive current) in IL-13-treated differentiated HBEC, Examples 1-2
Type: cell-based
Protocol: IL-13: abcam (#ab9577); Stock solution: 10 μg/mL water; 20 ng=2 μL Stock/mL media Media change with IL-13 every other day
Experimental design: IL-13 treatment with 20 ng/mL media for 4 and 14 days. Ussing chamber experiment in Basic Ringer (5 mM glucose in basolateral side).
In some embodiments, experimental studies called for determination of: • Baseline values (30 min) • Presence or absence of 6 μM Benzamil (on apical side) (15 min) • Presence or absence of 20 μM CFTRinh 172 (on apical and basolateral sides) (15 min) • Presence or absence 10 μM CaCCinh AO1 (on apical and basolateral sides) (10 min) • Presence or absence of 20 μM Bumetanide (on basolateral side) (15 min)
For Day 0 analysis: • IL-13 treatment: 0 ng/mL media • Ussing chamber experiment in basic ringer or amino acid (AA) formulations. • In addition, S side added 5 mM Glucose
Treatment for 4 days or 14 days analysis: • IL-13 treatment: 20 ng/mL media • Ussing chamber experiment in basic ringer or AA formulations. • In addition, S side added 5 mM Glucose
In some embodiments, the day 4 and day 14 experimental studies called for determination of: • Baseline values (30 min) • Presence or absence of 6 μM Benzamil (on mucosal side) (15 min) • Presence or absence of 20 μM Bumetanide (on serosal side) (15 min) • Presence or absence of 20 μM CFTRinh 172 (on mucosal and serosal sides) (15 min) […]

IL-13: Th2 cytokine (Abcam) added to HBEC culture medium
ENaC current versus IL-13 concentration (FIG. 2): dose-dependent reduction
day of maximum reduction in ENaC current (IL-13 exposure (FIG. 3)): 8 days
